Earlier results in patent US20260217837A1, “FGFR3 BINDING MOLECULES AND METHODS OF USE THEREOF” (Regeneron Pharmaceuticals, Inc., priority 2023, published 2026).
Residue numbers refer to the chain shown, from its start.

B1: MS-Pro-54: anti-FGFR3 Ig-like domain 3 antibody of WO 2002/102972 A2; SEQ ID NO: 42/43 (antibody, V domains shown)
VH: QVQLVQSGAEVKKPGASVKVSCKASGYTFTSYYMHWVRQAPGQGLEWMGWINPNSGGTNYAQKFQGRVTMTRDTSISTAYMELSSLRSEDTAVYYCARNMAYTNYQYVNMPHFDYWGQGTLVTVSS
VL: DIELTQPPSVSVAPGQTARISCSGDALGDKYASWYQQKPGQAPVLVIYDDSDRPSGIPERFSGSNSGNTATLTISGTQAEDEADYCQSYDYFKLVFGGGTKLTVLGQ
B2: PRO-054: anti-FGFR3 IIIc antibody of WO 2006/048877 A2; SEQ ID NO: 42/50 (antibody, V domains shown)
VH: B1 VH
VL: DIELTQPPSVSVAPGQTARISCSGDALGDKYASWYQQKPGQAPVLVIYDDSDRPSGIPERFSGSNSGNTATLTISGTQAEDEADYYCQSYDYFKLVFGGGTKLTVLGQ
B3: PRO-026: anti-FGFR3 IIIc antibody of WO 2006/048877 A2; SEQ ID NO: 36/37 (antibody, V domains shown)
VH: QVQLVQSGAEVKKPGASVKVSCKASGYTFTSYYMHWVRQAPGQGLEWMGWINPNSGGTNYAQKFQGRVTMTRDTSISTAYMELSSLRSEDTAVYYCARGYWYAYFTYINYGYFDNWGQGTLVTVSS
VL: DIALTQPASVSGSPGQSITISCTGTSSDVGGYNYVSWYQQHPGKAPKLMIYDVSNRPSGVSNRFSGSKSGNTASLTISGLQAEDEADYYCQSYDNNSDWFGGGTKLTVLGQ
B4: PRO-029: anti-FGFR3 IIIc antibody of WO 2006/048877 A2; SEQ ID NO: 40/49 (antibody, V domains shown)
VH: QVQLVQSGAEVKKPGASVKVSCKASGYTFTSYYMHWVRQAPGQGLEWMGWINPNSGGTNYAQKFQGRVTMTRDTSISTAYMELSSLRSEDTAVYYCARTWQYSYFYYLDGGYYFDIWGQGTLVTVSS
VL: DIVLTQSPATLSLSPGERATLSCRASQSVSSSYLAWYQQKPGQAPRLLIYGASSRATGVPARFSGSGSGTDFTLTISSLEPEDFATYYCQQTNNAPVTFGQGTKVEIKRT
B5: MS-Pro-55: anti-FGFR3 Ig-like domain 3 antibody of WO 2002/102972 A2; SEQ ID NO: 44/45 (antibody, V domains shown)
VH: QVQLVQSGAEVKKPGASVKVSCKASGYTFTSYYMHWVRQAPGQGLEWMGWINPNSGGTNYAQKFQGRVTMTRDTSISTAYMELSSLRSEDTAVYYCARSMNSTMYWYLRRVLFDHWGQGTLVTVSS
VL: DIALTQPASVSGSPGQSITISCTGTSSDVGGYNYVSWYQQHPGKAPKLMIYDVSNRPSGVSNRFSGSKSGNTASLTISGLQAEDEADYYCQSYDMYNYIVFGGGTKLTVLGQ
B6: PRO-055: anti-FGFR3 IIIc antibody of WO 2006/048877 A2; SEQ ID NO: 44/45 (antibody, V domains shown)
VH: B5 VH
VL: B5 VL
B7: 15D8: anti-FGFR3 Igl 3 antibody of WO 2010/002862 A2; SEQ ID NO: 51/52 (antibody, V domains shown)
VH: EIQLQQSGPELVKPGASVKVSCKASGYAFTSYNMYWVKQSHGKSLEWIGYIDPYNGGTSYNQKFKGKATLTVDKSSSTAYMHLNSLTSEDSAVYYCAREGGNYEAWFAYWGQGTLVTVSA
VL: QIVLTQSPALMSASPGEKVTMTCSASSSVSYMYWYQQKPRSSPKPWIYLTSYLASGVPARFSGSGSGTSYSLTISSMEAEDAATYYCQQWSSYPLTFGAGTKLELK
B8: 27H2: anti-FGFR3 Igl 3 antibody of WO 2010/002862 A2; SEQ ID NO: 53/54 (antibody, V domains shown)
VH: B7 VH with S59R, L70M
VL: B7 VL with Y52N, Y93N
B9: 2G4: anti-FGFR3 Igl 3 antibody of WO 2010/002862 A2; SEQ ID NO: 55/54 (antibody, V domains shown)
VH: B7 VH with S59R, Y60D
VL: B7 VL with Y52N, Y93N
B10: PRO-012: anti-FGFR3 antibody of WO 2006/048877 A2; SEQ ID NO: 47/27 (antibody, V domains shown)
VH: QVQLKESGPALVKPTQTLTLTCTFSGFSLSTSGVGVGWIRQPPGKALEWLALIDWDDDKYYSTSLKTRLTISKDTSKNQVVLTMTNMDPVDTATYYCARYHSWYEMGYYGSTVGYMFDYWGQGTLVTVSS
VL: B2 VL with Y92F, F93D, K94F, L95A
B11: MS-PRO-12: anti-FGFR3 Ig-like domain 2 antibody of WO 2002/102972 A2; SEQ ID NO: 26/27 (antibody, V domains shown)
VH: QVQLKESGPALVKPQTLTLTCTFSGFSLSTSGVGVGWIRQPPGKALEWLALIDWDDDKYYSTSLKTRLTISKDTSKNQVVLTMTNMDPVDTATYYCARYHSWYEMGYYGSTVGYMFDYWGQGTLVTVSS
VL: B2 VL with Y92F, F93D, K94F, L95A
B12: PRO-001: anti-FGFR3 antibody of WO 2006/048877 A2; SEQ ID NO: 46/29 (antibody, V domains shown)
VH: QVQLQQSGPGLVKPSQTLSLTCAISGDSVSSNSAAWNWIRQSPGRGLEWLGRTYYRSKWYNDYAVSVKSRITINPDTSKNQFSLQLNSVTPEDTAVYYCARSYYPDFDYWGQGTLVTVSS
VL: DIELTQPPSVSVAPGQTARISCSGDALGDKYASWYQQKPGQAPVLVIYDDSDRPSGIPERFSGSNSGNTATLTISGTQAEDEADYYCQSYDGPDLWVFGGGTKLTVLGQ
B13: PRO-002: anti-FGFR3 antibody of WO 2006/048877 A2; SEQ ID NO: 24/25 (antibody, V domains shown)
VH: QVQLVQSGAEVKKPGASVKVSCKASGYTFTSYYMHWVRQAPGQGLEWMGWINPNSGGTNYAQKFQGRVTMTRDTSISTAYMELSSLRSEDTAVYYCARDFLGYEFDYWGQGTLVTVSS
VL: B12 VL with G92Y, P93S, D94A, L95D, W96Y

Tested on: FGFR3
Conditions: Exemplary FGFR3 D3 binding sequences; antibodies of cited PCT publications

Molecule	Activity
B1	Antagonistic
B2	Antagonistic
B3	Antagonistic
B4	Antagonistic
B5	Antagonistic
B6	Antagonistic
B7	Antagonistic
B8	Antagonistic
B9	Antagonistic

Same assay, conditions: Table T-1, exemplary FGFR3 parental antibodies of cited publications

Molecule	Activity
B1	Antagonistic
B2	Antagonistic
B10	Antagonistic
B11	Antagonistic
B12	Antagonistic
B13	Antagonistic
B3	Antagonistic
B4	Antagonistic
B5	Antagonistic
B6	Antagonistic
B7	Antagonistic
B8	Antagonistic
B9	Antagonistic
